From US20030186281A1, “Modified tetracycline repressor protein compositions and methods of use” (priority 2001, published 2003)

Tested on: tet operator sequence
Test: β-galactosidase activity of a tetracycline-regulated promoter in transformed E. coli with revTetR, in the presence and absence of anhydrotetracycline (atc)
Format: cell-based, Escherichia coli
Conditions: for β-Galactosidase Activity, Cultured Without ATC: RevTetR isolate cultured in the absence of anhydrotetracycline (ATC); for β-Galactosidase Activity, Cultured With ATC: RevTetR isolate cultured in the presence of anhydrotetracycline (ATC)
How it was run: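 TetR(BD) chimera mutants (TetR(B) residues 1–50, TetR(D) 51–208) expressed in E. coli regulating a tet operator-controlled lacZ. β-Galactosidase measured in Miller units at 28 °C and 37 °C with and without anhydrotetracycline; reported as percent of maximal expression without Tet repressor.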

Row | Molecule | β-Galactosidase Activity, Cultured Without ATC | β-Galactosidase Activity, Cultured With ATC
1 | TetRrevAtc4-9: revTetR(BD) L52M A56P V57L E58V L60L H188Y (protein, Modified tetracycline repressor, revTetR(BD) L52M A56P V57L E58V L60L H188Y) MSRLDKSKVINSALELLNEVGIEGLTTRKLAQKLGVEQPTLYWHVKNKRALMDAMPLVILARHHDYSLPAAGESWQSFLRNNAMSFRRALLRYRDGAKVHLGTRPDEKQYDTVETQLRFMTENGFSLRDGLYAISAVSHFTLGAVLEQQEHTAALTDRPAAPDENLPPLLREALQIMDSDDGEQAFLYGLESLIRGFEVQLTALLQIV | 97.1039 | 1.8695
2 | TetRrev6-26: revTetR(BD) Y93F G96W A97E H100N (protein, Modified tetracycline repressor, revTetR(BD) Y93F G96W A97E H100N) MSRLDKSKVINSALELLNEVGIEGLTTRKLAQKLGVEQPTLYWHVKNKRALLDALAVEILARHHDYSLPAAGESWQSFLRNNAMSFRRALLRFRDWEKVNLGTRPDEKQYDTVETQLRFMTENGFSLRDGLYAISAVSHFTLGAVLEQQEHTAALTDRPAAPDENLPPLLREALQIMDSDDGEQAFLHGLESLIRGFEVQLTALLQIV | 53.6535 | 6.9688
3 | TetRrev6-23: revTetR(BD) D95E A97E (protein, Modified tetracycline repressor, revTetR(BD) D95E A97E) MSRLDKSKVINSALELLNEVGIEGLTTRKLAQKLGVEQPTLYWHVKNKRALLDALAVEILARHHDYSLPAAGESWQSFLRNNAMSFRRALLRYREGEKVHLGTRPDEKQYDTVETQLRFMTENGFSLRDGLYAISAVSHFTLGAVLEQQEHTAALTDRPAAPDENLPPLLREALQIMDSDDGEQAFLHGLESLIRGFEVQLTALLQIV | 101 | 49
4 | TetRrev04-1: revTetR(BD) G96E K98T (protein, Modified tetracycline repressor, revTetR(BD) G96E K98T) MSRLDKSKVINSALELLNEVGIEGLTTRKLAQKLGVEQPTLYWHVKNKRALLDALAVEILARHHDYSLPAAGESWQSFLRNNAMSFRRALLRYRDEATVHLGTRPDEKQYDTVETQLRFMTENGFSLRDGLYAISAVSHFTLGAVLEQQEHTAALTDRPAAPDENLPPLLREALQIMDSDDGEQAFLHGLESLIRGFEVQLTALLQIV | 102.092 | 44.145
5 | TetRrevDox4-2: revTetR(BD) D53E A54S I59M A61P (protein, Modified tetracycline repressor, revTetR(BD) D53E A54S I59M A61P) MSRLDKSKVINSALELLNEVGIEGLTTRKLAQKLGVEQPTLYWHVKNKRALLESLAVEMLPRHHDYSLPAAGESWQSFLRNNAMSFRRALLRYRDGAKVHLGTRPDEKQYDTVETQLRFMTENGFSLRDGLYAISAVSHFTLGAVLEQQEHTAALTDRPAAPDENLPPLLREALQIMDSDDGEQAFLHGLESLIRGFEVQLTALLQIV | 58.776 | 9.547
6 | TetRrev6-17: revTetR(BD) R94G G96W (protein, Modified tetracycline repressor, revTetR(BD) R94G G96W) MSRLDKSKVINSALELLNEVGIEGLTTRKLAQKLGVEQPTLYWHVKNKRALLDALAVEILARHHDYSLPAAGESWQSFLRNNAMSFRRALLRYGDWAKVHLGTRPDEKQYDTVETQLRFMTENGFSLRDGLYAISAVSHFTLGAVLEQQEHTAALTDRPAAPDENLPPLLREALQIMDSDDGEQAFLHGLESLIRGFEVQLTALLQIV | 56.5081 | 12.5
7 | TetRrevAtc4-9b: revTetR(BD) A56P V57L E58V L60L (protein, Modified tetracycline repressor, revTetR(BD) A56P V57L E58V L60L) MSRLDKSKVINSALELLNEVGIEGLTTRKLAQKLGVEQPTLYWHVKNKRALLDALPLVILARHHDYSLPAAGESWQSFLRNNAMSFRRALLRYRDGAKVHLGTRPDEKQYDTVETQLRFMTENGFSLRDGLYAISAVSHFTLGAVLEQQEHTAALTDRPAAPDENLPPLLREALQIMDSDDGEQAFLHGLESLIRGFEVQLTALLQIV | 107.982 | 1.0594
8 | TetRrev6-2: revTetR(BD) D95G G96R H100L (protein, Modified tetracycline repressor, revTetR(BD) D95G G96R H100L) MSRLDKSKVINSALELLNEVGIEGLTTRKLAQKLGVEQPTLYWHVKNKRALLDALAVEILARHHDYSLPAAGESWQSFLRNNAMSFRRALLRYRGRAKVLLGTRPDEKQYDTVETQLRFMTENGFSLRDGLYAISAVSHFTLGAVLEQQEHTAALTDRPAAPDENLPPLLREALQIMDSDDGEQAFLHGLESLIRGFEVQLTALLQIV | 95.487 | 18.3
9 | TetRrev04-4: revTetR(BD) G96E V113A (protein, Modified tetracycline repressor, revTetR(BD) G96E V113A) MSRLDKSKVINSALELLNEVGIEGLTTRKLAQKLGVEQPTLYWHVKNKRALLDALAVEILARHHDYSLPAAGESWQSFLRNNAMSFRRALLRYRDEAKVHLGTRPDEKQYDTAETQLRFMTENGFSLRDGLYAISAVSHFTLGAVLEQQEHTAALTDRPAAPDENLPPLLREALQIMDSDDGEQAFLHGLESLIRGFEVQLTALLQIV | 99.655 | 19.878
10 | TetRrev6-13: revTetR(BD) G96R L101I (protein, Modified tetracycline repressor, revTetR(BD) G96R L101I) MSRLDKSKVINSALELLNEVGIEGLTTRKLAQKLGVEQPTLYWHVKNKRALLDALAVEILARHHDYSLPAAGESWQSFLRNNAMSFRRALLRYRDRAKVHIGTRPDEKQYDTVETQLRFMTENGFSLRDGLYAISAVSHFTLGAVLEQQEHTAALTDRPAAPDENLPPLLREALQIMDSDDGEQAFLHGLESLIRGFEVQLTALLQIV | 15.7835 | 2.5043
11 | TetRrevDox4-1: revTetR(BD) D53E A54S A61P (protein, Modified tetracycline repressor, revTetR(BD) D53E A54S A61P) MSRLDKSKVINSALELLNEVGIEGLTTRKLAQKLGVEQPTLYWHVKNKRALLESLAVEILPRHHDYSLPAAGESWQSFLRNNAMSFRRALLRYRDGAKVHLGTRPDEKQYDTVETQLRFMTENGFSLRDGLYAISAVSHFTLGAVLEQQEHTAALTDRPAAPDENLPPLLREALQIMDSDDGEQAFLHGLESLIRGFEVQLTALLQIV | 36.03 | 5.627
12 | TetRrev6-25: revTetR(BD) Y93S D95E G102A (protein, Modified tetracycline repressor, revTetR(BD) Y93S D95E G102A) MSRLDKSKVINSALELLNEVGIEGLTTRKLAQKLGVEQPTLYWHVKNKRALLDALAVEILARHHDYSLPAAGESWQSFLRNNAMSFRRALLRSREGAKVHLATRPDEKQYDTVETQLRFMTENGFSLRDGLYAISAVSHFTLGAVLEQQEHTAALTDRPAAPDENLPPLLREALQIMDSDDGEQAFLHGLESLIRGFEVQLTALLQIV | 42.8584 | 4.136
